Laboratory results published in patent US20200109196A1 (MOGAM INSTITUTE FOR BIOMEDICAL RESEARCH, published 2020).

Tests used:
Assay in all cases: flow cytometry on transfected HEK293 cells (GFP+ gate), PE goat anti-huIgG4 [a]
[1] = biological target: T1, CEACAM8 expressed on the surface of HEK293 cells (human, UniProt P31997 35-320)
T1 construct: whole, on cells
T1 sequence (looked up): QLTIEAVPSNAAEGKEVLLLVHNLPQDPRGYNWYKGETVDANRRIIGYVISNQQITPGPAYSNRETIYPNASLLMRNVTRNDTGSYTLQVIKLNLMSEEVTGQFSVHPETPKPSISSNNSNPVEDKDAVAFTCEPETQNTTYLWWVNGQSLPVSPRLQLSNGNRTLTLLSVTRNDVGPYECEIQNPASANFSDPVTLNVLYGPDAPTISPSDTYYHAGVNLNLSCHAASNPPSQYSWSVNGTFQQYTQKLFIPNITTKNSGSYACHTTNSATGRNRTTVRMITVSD
Procedure: (§1) HEK293 cells were added with 10 μg of each pEF1α-AcGFP-N1 vector (Clontech, Cat. No. 631973) as a control vector, CEACAM1, CEACAM3, CEACAM5, CEACAM6 and CEACAM8 plasmid vectors, followed by transfection under the condition of pulse voltage 1,100 V, pulse width 20 ms and pulse number 2. After 48 hours of transfection, GFP expression was confirmed by fluorescence microscopy. The cells were detached by treatment with 1 ml of TrypLE Express Solution (ThermoFisher Scientific; Cat. No. 12605010), resuspended in 9 ml of DMEM (Gibco, Cat. No. 11995-065) supplemented with 10% (v/v) FBS, and centrifuged at 1,200 rpm for 5 minutes, to remove the resulting supernatant.
(§2) After washing once with PBS, the cells were resuspended in a FACS buffer to obtain a concentration of 5×10⁵ cells/100 μl. Human Fc Block solution was added to the samples at 1 μl/sample, which were incubated at 4° C. for 10 minutes. The cells were treated with hulgG4 or one of the anti-CEACAM1 clones listed at 1 μg/5×10⁵ cells, which were incubated at 4° C. for 10 minutes. After washing with FACS buffer, the PE-labeled goat-anti-huIgG4 antibodies were diluted at a ratio of 1:200 in a FACS buffer, and added to the samples at 100 μl/sample, which were incubated at 4° C. for 30 minutes. The samples were filled with a FACS buffer up to 200 μl, and then centrifuged at 1,200 rpm for 5 minutes, to remove the resulting supernatant. The fixation buffer (300 μl) was added to resuspend the cells. The cells expressing GFP were selected in the FACS LSR-Fortessa device, and the expression of CEACAM members were evaluated respectively using the antibody specific to each CEACAM member (Table 3). Also, the binding of anti-CEACAM1 antibodies was evaluated by PE fluorescence channel and analyzed using the FlowJo software.

[2] = biological target: T2, CEACAM5 expressed on the surface of HEK293 cells (human, UniProt P06731 35-685)
T2 construct: whole, on cells; GFP-tagged clone; also called CEACAM5-GFP
T2 sequence (looked up): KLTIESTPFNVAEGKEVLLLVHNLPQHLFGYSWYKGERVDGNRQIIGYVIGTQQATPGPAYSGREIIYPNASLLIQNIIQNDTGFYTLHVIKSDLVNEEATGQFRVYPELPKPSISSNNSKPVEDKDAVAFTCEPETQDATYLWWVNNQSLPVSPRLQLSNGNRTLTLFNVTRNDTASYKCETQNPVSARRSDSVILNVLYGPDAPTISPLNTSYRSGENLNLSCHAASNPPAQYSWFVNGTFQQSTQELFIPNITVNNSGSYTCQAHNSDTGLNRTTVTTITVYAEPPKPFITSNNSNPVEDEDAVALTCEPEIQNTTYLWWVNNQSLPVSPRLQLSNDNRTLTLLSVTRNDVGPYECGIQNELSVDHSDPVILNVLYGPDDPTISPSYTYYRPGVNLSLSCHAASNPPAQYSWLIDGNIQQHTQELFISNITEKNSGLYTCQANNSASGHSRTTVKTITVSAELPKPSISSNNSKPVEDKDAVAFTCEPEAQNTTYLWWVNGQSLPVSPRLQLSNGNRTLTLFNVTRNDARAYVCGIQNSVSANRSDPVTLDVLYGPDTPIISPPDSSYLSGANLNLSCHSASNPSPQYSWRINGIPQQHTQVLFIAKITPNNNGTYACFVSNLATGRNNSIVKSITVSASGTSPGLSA
Procedure: as §1, §2

[3] = biological target: T3, CEACAM3 expressed on the surface of HEK293 cells (human, UniProt P40198 35-252)
T3 construct: whole, on cells; GFP-tagged clone; also called CEACAM3-GFP
T3 sequence (looked up): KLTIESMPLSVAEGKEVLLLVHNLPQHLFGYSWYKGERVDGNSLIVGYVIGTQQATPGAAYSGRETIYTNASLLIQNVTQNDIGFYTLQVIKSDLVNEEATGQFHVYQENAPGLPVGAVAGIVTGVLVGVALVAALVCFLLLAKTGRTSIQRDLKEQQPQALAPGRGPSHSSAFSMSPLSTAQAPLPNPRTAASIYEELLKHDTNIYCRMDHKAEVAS
Procedure: as §1, §2

Measured: binding result

B1: C25 (antibody, human IgG4 S228P, lambda, V domains shown)
VH: EVQLLESGGGLVQPGGSLRLSCAASGFTFSNYAMSWVRQAPGKGLEWVSVISHGGGSIYYADSVKGRLTISRDNSKNTLYLQMNSLRAEDTAVYYCARDPTKGYAPTFDYWGQGTLVTVSS
VL: QSVLTQPPSASGTPGQRVTISCSGSSSNIGNNYVSWYQQLPGTAPKLLIYADSKRPSGVPDRFSGSKSGTSASLAISGLRSEDEADYYCGAWDASLNGYVFGGGTKLTVLG
notes: Made in ExpiHEK293F cells, protein A purified. huIgG4 is the isotype control and anti-huIgG4 the detection reagent; the isotype is not otherwise stated; also called anti-CEACAM1 antibody C25
no binding: all assays above
